Source: patent US20240200044, “EVOLUTION OF TALENS” (President and Fellows of Harvard College, published 2024)

B1: ATM left half-site on-target (dsDNA)
DNA 1: TGAATTGGGATGCTGTTT
DNA 2: AAACAGCATCCCAATTCA
B2: Zif268 consensus site (dsDNA)
DNA 1: GCGTGGGCG
DNA 2: CGCCCACGC
B3: ATM left half-site 5'A (dsDNA)
DNA 1: AGAATTGGGATGCTGTTT
DNA 2: AAACAGCATCCCAATTCT
modifications: [1 (T>A)]

Tests used:
[1] = target: ATM-L-directed TALE-omega K59E (synthetic construct, K59E); test: one_hybrid; versus canonical ATM-L TALE; conditions: tags: N-terminal FLAG-NLS, C-terminal RNAP omega
omega-Zif268-DBD fusion = omega-Zif268-DBD fusion (Mus musculus, UniProt P08046 SEQ:103-190); test: one_hybrid; pIII-luciferase induction, site at -62, E. coli

Row | Binder | binding signal [1] | binding signal (omega-Zif268-DBD fusion)
1 | B1 | 1.5 fold increase | 
2 | B2 |  | ≥ 10 fold
3 | B3 | 2 fold increase | 
